{
  "source": "patent US7745159",
  "key": {"[1]": {"biological_target": "antigen defined by MAb OV569 on human carcinoma cell surfaces (human)", "assay": "flow cytometry, OV569 supernatant on ovarian carcinoma line H3907, against an irrelevant MAb"}, "[2]": {"biological_target": "antigen defined by MAb OV569 on human carcinoma cell surfaces (human)", "assay": "flow cytometry, OV569 supernatant on ovarian carcinoma line H3633, against an irrelevant MAb"}, "[3]": {"biological_target": "antigen defined by MAb OV569 on human carcinoma cell surfaces (human)", "assay": "flow cytometry, OV569 supernatant on lung carcinoma line H3754, against an irrelevant MAb"}, "[4]": {"biological_target": "antigen defined by MAb OV569 on human carcinoma cell surfaces (human)", "assay": "flow cytometry, OV569 supernatant on ovarian carcinoma line H4006, against an irrelevant MAb"}, "[5]": {"biological_target": "antigen defined by MAb OV569 on human carcinoma cell surfaces (human)", "assay": "flow cytometry, OV569 supernatant on ovarian carcinoma line H3538, against an irrelevant MAb"}, "[6]": {"biological_target": "antigen defined by MAb OV569 on human carcinoma cell surfaces (human)", "assay": "flow cytometry, OV569 supernatant on ovarian carcinoma line H4007, against an irrelevant MAb"}, "[7]": {"biological_target": "antigen defined by MAb OV569 on human carcinoma cell surfaces (human)", "assay": "flow cytometry, OV569 supernatant on ovarian carcinoma line H4004, against an irrelevant MAb"}, "[8]": {"biological_target": "antigen defined by MAb OV569 on human carcinoma cell surfaces (human)", "assay": "flow cytometry, OV569 supernatant on lung carcinoma line H2987, against an irrelevant MAb"}, "[9]": {"biological_target": "antigen defined by MAb OV569 on human carcinoma cell surfaces (human)", "assay": "flow cytometry, OV569 supernatant on lung carcinoma line H4013, against an irrelevant MAb"}, "[10]": {"biological_target": "antigen defined by MAb OV569 on human carcinoma cell surfaces (human)", "assay": "flow cytometry, OV569 supernatant on lung carcinoma line H3776, against an irrelevant MAb"}, "[11]": {"biological_target": "antigen defined by MAb OV569 on human carcinoma cell surfaces (human)", "assay": "flow cytometry, OV569 supernatant on ovarian carcinoma line H3750, against an irrelevant MAb"}, "[12]": {"biological_target": "antigen defined by MAb OV569 on human carcinoma cell surfaces (human)", "assay": "flow cytometry, OV569 supernatant on ovarian carcinoma line H4002, against an irrelevant MAb"}, "[13]": {"biological_target": "antigen defined by MAb OV569 on human carcinoma cell surfaces (human)", "assay": "flow cytometry, OV569 supernatant on lung carcinoma line H3963, against an irrelevant MAb"}, "[14]": {"biological_target": "antigen defined by MAb OV569 on human carcinoma cell surfaces (human)", "assay": "flow cytometry, OV569 supernatant on ovarian carcinoma line H3909, against an irrelevant MAb"}, "[15]": {"biological_target": "antigen defined by MAb OV569 on human carcinoma cell surfaces (human)", "assay": "flow cytometry, OV569 supernatant on lung carcinoma line H2981, against an irrelevant MAb"}, "[16]": {"biological_target": "antigen defined by MAb OV569 on human carcinoma cell surfaces (human)", "assay": "flow cytometry, OV569 supernatant on ovarian carcinoma line H4012, against an irrelevant MAb"}, "[17]": {"biological_target": "antigen defined by MAb OV569 on human carcinoma cell surfaces (human)", "assay": "flow cytometry, OV569 supernatant on ovarian carcinoma line H4010-1, against an irrelevant MAb"}, "[18]": {"biological_target": "antigen defined by MAb OV569 on human carcinoma cell surfaces (human)", "assay": "flow cytometry, OV569 supernatant on ovarian carcinoma line H3659.5, against an irrelevant MAb"}, "[19]": {"biological_target": "antigen defined by MAb OV569 on human carcinoma cell surfaces (human)", "assay": "flow cytometry, OV569 supernatant on ovarian carcinoma line H3759, against an irrelevant MAb"}, "[20]": {"biological_target": "antigen defined by MAb OV569 on human carcinoma cell surfaces (human)", "assay": "flow cytometry, OV569 supernatant on ovarian carcinoma line H4014, against an irrelevant MAb"}},
  "data": [
    {"substance": "monoclonal antibody OV569", "values": [
      {"measurement": "LFE(sample)/LFE(control)", "setting": "[1]", "result": 3.85},
      {"measurement": "LFE(sample)/LFE(control)", "setting": "[2]", "result": 1},
      {"measurement": "LFE(sample)/LFE(control)", "setting": "[3]", "result": 1.59},
      {"measurement": "LFE(sample)/LFE(control)", "setting": "[4]", "result": 2.53},
      {"measurement": "LFE(sample)/LFE(control)", "setting": "[5]", "result": 2.55},
      {"measurement": "LFE(sample)/LFE(control)", "setting": "[6]", "result": 8.72},
      {"measurement": "LFE(sample)/LFE(control)", "setting": "[7]", "result": 2.43},
      {"measurement": "LFE(sample)/LFE(control)", "setting": "[8]", "result": 1.25},
      {"measurement": "LFE(sample)/LFE(control)", "setting": "[9]", "result": 7},
      {"measurement": "LFE(sample)/LFE(control)", "setting": "[10]", "result": 1.33},
      {"measurement": "LFE(sample)/LFE(control)", "setting": "[11]", "result": 2.57},
      {"measurement": "LFE(sample)/LFE(control)", "setting": "[12]", "result": 8.48},
      {"measurement": "LFE(sample)/LFE(control)", "setting": "[13]", "result": 1.11},
      {"measurement": "LFE(sample)/LFE(control)", "setting": "[14]", "result": 3.84},
      {"measurement": "LFE(sample)/LFE(control)", "setting": "[15]", "result": 1.3},
      {"measurement": "LFE(sample)/LFE(control)", "setting": "[16]", "result": 1},
      {"measurement": "LFE(sample)/LFE(control)", "setting": "[17]", "result": 1.12},
      {"measurement": "LFE(sample)/LFE(control)", "setting": "[18]", "result": 5.63},
      {"measurement": "LFE(sample)/LFE(control)", "setting": "[19]", "result": 6.74},
      {"measurement": "LFE(sample)/LFE(control)", "setting": "[20]", "result": 1}
    ]}
  ]
}
